Results on 20 sequences are retold here after the supplement of paper PMC10899765.

Common to all, as to settings: 20 nM; 72 h
For series [1], the system named is MCF10A. As to the kind of experiment: one-nucleolus phenotype percent effect (relative to siNT 0% and siNOL11 100%); higher = more cells with one nucleolus (ribosome biogenesis inhibition). How it is done: (§1)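 After 72 h, cells were fixed and stained with Hoechst and anti-fibrillarin, and nucleoli per nucleus were counted with CellProfiler. Values are plate-adjusted percent effect for the one-nucleolus and 5+ nucleoli phenotypes, normalised to siNT (0%) and to the positive controls siNOL11 or siKIF11 (100%), as the mean of biological triplicates. Percent viability is the nuclei count relative to siNT.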

Series [2] deals with MCF10A. As to the kind of experiment: 5+ nucleoli phenotype percent effect (relative to siNT 0% and siKIF11 100%); higher = more cells with five or more nucleoli. The protocol: as §1
Series [3] relates to MCF10A. As to the kind of experiment: percent viability (nuclei count relative to siNT); higher = more viable cells. How it is done:
as §1

For the sequence UCUCUGGUCUUUCCUUGACAG [hsa-miR-6764-3p], the “one-nucleolus phenotype percent effect” value in the series with MCF10A [1] came out at 0.623%. Further, the “5+ nucleoli phenotype percent effect” value in the series on MCF10A [2] turned out to be 17.2%. In addition, in the series on MCF10A [3], the percent viability was 27.5%.
For the sequence UCUCUUCAUCUACCCCCCAG [hsa-miR-6515-3p], the “one-nucleolus phenotype percent effect” value with MCF10A [1] stood at 4.68%. For the same sequence, in the series on MCF10A [2], the “5+ nucleoli phenotype percent effect” value is -2.57%. Moreover, the percent viability with MCF10A [3] was 85.2%.
For UCUGAAAGAGCAGUUGGUGUU [hsa-miR-4766-5p] the same measures were -18.9%, 2.75% and 56.2%.
Taken in the same sequence, the figures for UCUGAAUAGAGUCUGAAGAGU [hsa-miR-4427] were -23.1%, 39.9% and 71.5%.
For UCUGAAUUGUAAGAGUUGUUA [hsa-miR-4680-3p] the same measures were -21.5%, 14.3% and 114%.
In the case of “UCUGACAUCAGUGAUUCUCCUG [hsa-miR-6719-3p]”, in the series on MCF10A [1], the “one-nucleolus phenotype percent effect” value was -5.44%. In addition, in the series on MCF10A [2], the “5+ nucleoli phenotype percent effect” value was 20.2%. The percent viability with MCF10A [3] came out at 115%.
Taken in the same sequence, the figures for UCUGAGAGAGCUCGAUGGCAG [hsa-miR-6761-5p] were -17.3%, 9.71% and 56.8%.
Regarding UCUGAGGCCUGCCUCUCCCCA [hsa-miR-4649-3p], the “one-nucleolus phenotype percent effect” value with MCF10A [1] is 23.9%. Besides, in the series on MCF10A [2], the “5+ nucleoli phenotype percent effect” value was -6.15%. The percent viability in the series with MCF10A [3] is 54.4%.
Consider UCUGAGGUGGAACAGCAGC [hsa-miR-7162-3p], for which the “one-nucleolus phenotype percent effect” value with MCF10A [1] was 19.5%. In the series on MCF10A [2], the “5+ nucleoli phenotype percent effect” value was -23%. In addition, the percent viability with MCF10A [3] was determined as 27.2%.
Consider UCUGAGUUCCUGGAGCCUGGUCU [hsa-miR-4682], for which the “one-nucleolus phenotype percent effect” value in the series on MCF10A [1] is -20%. The “5+ nucleoli phenotype percent effect” value with MCF10A [2] amounted to 18.8%. Also, the percent viability with MCF10A [3] was determined as 104%.
On to UCUGCAAGUGUCAGAGGCGAGG [hsa-miR-2276], for which, in the series with MCF10A [1], the “one-nucleolus phenotype percent effect” value is -15.8%. In addition, the “5+ nucleoli phenotype percent effect” value in the series with MCF10A [2] came out at 38.4%. Besides, in the series on MCF10A [3], the percent viability was found to be 160%.
For “UCUGCACUGUGAGUUGGCUGGCU [hsa-miR-4793-3p]” the same measures were 10.7%, -3.16% and 44.7%.
For “UCUGCCAUAGGAAGCUUGGAGUGG [hsa-miR-6817-5p]” the same measures were -25%, 1.17% and 65.4%.
Taken in the same sequence, the figures for “UCUGCCAUCCUCCCUCCCCUAC [hsa-miR-4769-3p]” were -18%, 30.9% and 87%.
Turning to UCUGCCCCCUCCGCUGCUGCCA [hsa-miR-1913], in the series on MCF10A [1], the “one-nucleolus phenotype percent effect” value was -11.1%. Besides, the “5+ nucleoli phenotype percent effect” value with MCF10A [2] amounted to 54.4%. The percent viability with MCF10A [3] came out at 88.8%.
With “UCUGCUCAUACCCCAUGGUUUCU [hsa-miR-767-3p]”, the “one-nucleolus phenotype percent effect” value in the series on MCF10A [1] was -21.6%. Further, the “5+ nucleoli phenotype percent effect” value in the series on MCF10A [2] was 54.2%. For the same sequence, the percent viability with MCF10A [3] came out at 129%.
For the sequence “UCUGGAUUGAAGAGACGACCCA [hsa-miR-6839-5p]”, in the series on MCF10A [1], the “one-nucleolus phenotype percent effect” value was found to be 2.28%. Moreover, the “5+ nucleoli phenotype percent effect” value with MCF10A [2] was -12.4%. In addition, the percent viability with MCF10A [3] is 36.1%.
Taken in the same sequence, the figures for UCUGGCAAGUAAAAAACUCUCAU [hsa-miR-3128] were 10.4%, -13.6% and 24.9%.
Taken in the same sequence, the figures for UCUGGCCAGCUACGUCCCCA [hsa-miR-3190-5p] were -10.2%, 19.8% and 48.9%.
Turning to “UCUGGCCUUGACUUGACUCUUU [hsa-miR-3922-3p]”, in the series with MCF10A [1], the “one-nucleolus phenotype percent effect” value was -2.7%. The “5+ nucleoli phenotype percent effect” value with MCF10A [2] was 6.7%. Also, in the series on MCF10A [3], the percent viability amounted to 35.7%.
